Experimental data: patent publication US20130081152

Tested on: T1, His-tagged recombinant PbGDPS_SSU (expressed in E. coli from pET15b)
T1 sequence: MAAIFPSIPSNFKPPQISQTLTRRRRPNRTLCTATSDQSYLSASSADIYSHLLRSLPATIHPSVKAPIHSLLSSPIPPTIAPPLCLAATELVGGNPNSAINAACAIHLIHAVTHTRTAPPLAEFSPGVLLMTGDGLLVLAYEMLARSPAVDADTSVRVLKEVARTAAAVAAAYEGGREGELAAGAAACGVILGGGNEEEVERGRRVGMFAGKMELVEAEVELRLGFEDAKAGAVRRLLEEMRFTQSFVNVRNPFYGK

Substance: His-tagged recombinant PbGDPS_LSU (truncated, expressed in E. coli from pBAD202/D-TOPO)
- prenyltransferase activity: higher prenyltransferase activity than either PbGDPS_LSU or PbGDPS_SSU alone
